Positions count from the first letter of the chain named.
B1: SEQ ID NO 134 (designed binder)
chain: MLPAPKNLVVSRVTEDSARLSWTAPDAAFDSFYIAYAEPRPDGEAIGLQVPGSERSYDLTGLKPGTEYSVLIHGVKGGLLSSPLSAIFTT
notes: FN3 domain
B2: SEQ ID NO 135 (designed binder)
chain: B1 chain with G47Q, Q49A, S85H, I87F
notes: FN3 domain
B3: SEQ ID NO 137 (designed binder)
chain: B1 chain with G47V, Q49D, S85V, I87E
notes: FN3 domain
B4: SEQ ID NO 138 (designed binder)
chain: B1 chain with A4T, G47Q, Q49R, S85H, I87S
notes: FN3 domain
B5: SEQ ID NO 141 (designed binder)
chain: B1 chain with G47F, Q49G, S85I, I87F
notes: FN3 domain
B6: SEQ ID NO 143 (designed binder)
chain: B1 chain with G47L, Q49F, S85V, I87H
notes: FN3 domain
B7: SEQ ID NO 144 (designed binder)
chain: B1 chain with Q49Y, S85G, I87F
notes: FN3 domain
B8: SEQ ID NO 145 (designed binder)
chain: B1 chain with G47L, S85T
notes: FN3 domain
B9: SEQ ID NO 146 (designed binder)
chain: B1 chain with G47T, Q49H
notes: FN3 domain
B10: SEQ ID NO 147 (designed binder)
chain: B1 chain with G47V, Q49E, S85D, I87H
notes: FN3 domain
B11: SEQ ID NO 148 (designed binder)
chain: B1 chain with G47A, Q49H, S85R, I87V
notes: FN3 domain
B12: SEQ ID NO 149 (designed binder)
chain: B1 chain with G47Q, Q49W
notes: FN3 domain
B13: SEQ ID NO 150 (designed binder)
chain: B1 chain with W22R, G47V, Q49I
notes: FN3 domain
B14: SEQ ID NO 152 (designed binder)
chain: B1 chain with G47T, Q49D, S85Y, I87F
notes: FN3 domain
B15: SEQ ID NO 153 (designed binder)
chain: B1 chain with G47A, Q49H
notes: FN3 domain
B16: SEQ ID NO 154 (designed binder)
chain: B1 chain with Q49W, S85I, I87H
notes: FN3 domain
B17: SEQ ID NO 155 (designed binder)
chain: B1 chain with G47W, Q49V, S85H, I87R
notes: FN3 domain
B18: SEQ ID NO 156 (designed binder)
chain: B1 chain with G47F, S85A, I87V
notes: FN3 domain
B19: SEQ ID NO 157 (designed binder)
chain: B1 chain with G47L, Q49H, F88S
notes: FN3 domain
B20: SEQ ID NO 158 (designed binder)
chain: B1 chain with G47I, I87V
notes: FN3 domain
B21: SEQ ID NO 159 (designed binder)
chain: B1 chain with G47Y, Q49K, S85V, I87H
notes: FN3 domain
B22: SEQ ID NO 160 (designed binder)
chain: B1 chain with G47V, Q49T, S85L, I87Y
notes: FN3 domain
B23: SEQ ID NO 164 (designed binder)
chain: B1 chain with G47I, Q49R, S85V
notes: FN3 domain
B24: SEQ ID NO 165 (designed binder)
chain: B1 chain with G47V, S85A, I87W
notes: FN3 domain
B25: SEQ ID NO 166 (designed binder)
chain: B1 chain with G47F, S85N, I87F
notes: FN3 domain
B26: SEQ ID NO 167 (designed binder)
chain: B1 chain with Y33F, A35G, A37L, R40Q, D42P, G47I, Q49G, S85H, I87Y, F88S
notes: FN3 domain
B27: SEQ ID NO 169 (designed binder)
chain: B1 chain with G47L, Q49L, I87V
notes: FN3 domain
B28: SEQ ID NO 170 (designed binder)
chain: B1 chain with G47H, Q49L, S85L, I87H
notes: FN3 domain
B29: SEQ ID NO 171 (designed binder)
chain: B1 chain with G47Q, Q49W, S85D, I87Y
notes: FN3 domain

molecular target: T1, recombinant biotinylated human CD71 extracellular domain (human, UniProt P02786 89-760, biotinylated); experiment: solution ELISA, signal ratio to HSA
T1 construct: extracellular domain; also called hCD71; huCD71 ECD
T1 sequence (P02786 other isoform, or with tags, fused parts or gaps): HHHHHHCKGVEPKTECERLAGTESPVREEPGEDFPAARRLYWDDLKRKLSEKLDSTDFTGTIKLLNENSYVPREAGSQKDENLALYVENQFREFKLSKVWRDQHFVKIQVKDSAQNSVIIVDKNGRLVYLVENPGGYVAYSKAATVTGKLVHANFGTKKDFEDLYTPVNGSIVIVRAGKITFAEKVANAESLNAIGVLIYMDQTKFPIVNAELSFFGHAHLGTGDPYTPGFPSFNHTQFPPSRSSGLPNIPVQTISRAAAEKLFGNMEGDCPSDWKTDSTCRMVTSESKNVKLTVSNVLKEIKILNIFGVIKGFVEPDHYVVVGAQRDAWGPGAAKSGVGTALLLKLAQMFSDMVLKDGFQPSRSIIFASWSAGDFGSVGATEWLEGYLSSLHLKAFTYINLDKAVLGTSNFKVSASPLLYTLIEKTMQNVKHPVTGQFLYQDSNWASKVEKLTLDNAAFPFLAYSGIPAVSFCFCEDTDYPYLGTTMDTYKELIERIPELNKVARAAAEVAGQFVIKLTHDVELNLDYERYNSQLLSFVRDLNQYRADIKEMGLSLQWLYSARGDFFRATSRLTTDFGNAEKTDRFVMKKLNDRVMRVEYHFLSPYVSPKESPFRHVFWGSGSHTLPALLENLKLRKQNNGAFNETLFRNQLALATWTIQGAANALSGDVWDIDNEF

| Binder | hCD71:HSA |
| --- | --- |
| B1 | 36.7 |
| B2 | 42.1 |
| B3 | 268 |
| B4 | 74.3 |
| B5 | 37 |
| B6 | 157 |
| B7 | 30.8 |
| B8 | 348 |
| B9 | 63.7 |
| B10 | 204 |
| B11 | 21.1 |
| B12 | 91.2 |
| B13 | 12.7 |
| B14 | 55.4 |
| B15 | 16 |
| B16 | 33.7 |
| B17 | 27.7 |
| B18 | 104 |
| B19 | 94.9 |
| B20 | 312 |
| B21 | 14.4 |
| B22 | 203 |
| B23 | 147 |
| B24 | 175 |
| B25 | 34 |
| B26 | 23.2 |
| B27 | 241 |
| B28 | 19.6 |
| B29 | 35.3 |

molecular target: T2, CD71 apical domain (UniProt P02786 189-383, limits assumed); experiment: solution ELISA, signal ratio to HSA
T2 construct: domain: Apical domain
T2 sequence (P02786 189-383 limits assumed): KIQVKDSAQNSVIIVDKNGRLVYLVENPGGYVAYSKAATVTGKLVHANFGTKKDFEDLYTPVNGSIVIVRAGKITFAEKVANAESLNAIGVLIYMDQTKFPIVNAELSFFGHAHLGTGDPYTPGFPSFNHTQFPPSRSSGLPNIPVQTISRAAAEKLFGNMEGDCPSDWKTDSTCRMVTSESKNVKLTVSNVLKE

| Binder | apical domain:HSA |
| --- | --- |
| B1 | 309 |
| B2 | 263 |
| B3 | 412 |
| B4 | 369 |
| B5 | 190 |
| B6 | 363 |
| B7 | 234 |
| B8 | 466 |
| B9 | 337 |
| B10 | 478 |
| B11 | 248 |
| B12 | 361 |
| B13 | 30.8 |
| B14 | 359 |
| B15 | 186 |
| B16 | 239 |
| B17 | 263 |
| B18 | 286 |
| B19 | 194 |
| B20 | 500 |
| B21 | 345 |
| B22 | 378 |
| B23 | 328 |
| B24 | 299 |
| B25 | 170 |
| B26 | 0.7 |
| B27 | 420 |
| B28 | 117 |
| B29 | 296 |

molecular target: T1, recombinant biotinylated human CD71 …; experiment: solution ELISA

| Binder | hCD71, RLU [RLU] |
| --- | --- |
| B1 | 640000 |
| B2 | 967000 |
| B3 | 5.11e+06 |
| B4 | 1.08e+06 |
| B5 | 965000 |
| B6 | 3.25e+06 |
| B7 | 516000 |
| B8 | 6.2e+06 |
| B9 | 1.08e+06 |
| B10 | 2.94e+06 |
| B11 | 290000 |
| B12 | 1.56e+06 |
| B13 | 1.3e+06 |
| B14 | 764000 |
| B15 | 339000 |
| B16 | 779000 |
| B17 | 513000 |
| B18 | 2.46e+06 |
| B19 | 3.61e+06 |
| B20 | 4.99e+06 |
| B21 | 185000 |
| B22 | 4.46e+06 |
| B23 | 3.78e+06 |
| B24 | 4.91e+06 |
| B25 | 1.22e+06 |
| B26 | 4.17e+06 |
| B27 | 4.14e+06 |
| B28 | 814000 |
| B29 | 653000 |

molecular target: T2, CD71 apical domain; experiment: solution ELISA

| Binder | Apical domain, RLU [RLU] |
| --- | --- |
| B1 | 5.39e+06 |
| B2 | 6.05e+06 |
| B3 | 7.87e+06 |
| B4 | 5.35e+06 |
| B5 | 4.96e+06 |
| B6 | 7.51e+06 |
| B7 | 3.91e+06 |
| B8 | 8.3e+06 |
| B9 | 5.72e+06 |
| B10 | 6.89e+06 |
| B11 | 3.41e+06 |
| B12 | 6.16e+06 |
| B13 | 3.16e+06 |
| B14 | 4.96e+06 |
| B15 | 3.96e+06 |
| B16 | 5.54e+06 |
| B17 | 4.86e+06 |
| B18 | 6.71e+06 |
| B19 | 7.39e+06 |
| B20 | 8.01e+06 |
| B21 | 4.43e+06 |
| B22 | 8.31e+06 |
| B23 | 8.42e+06 |
| B24 | 8.37e+06 |
| B25 | 6.08e+06 |
| B26 | 128000 |
| B27 | 7.21e+06 |
| B28 | 4.86e+06 |
| B29 | 5.48e+06 |
